Each block holds one molecule with its values, some of them ahead of it.
Legend:
[1] = biological target: Full extracellular domain of mouse amyloid precursor protein (mouse) (UniProt P12023); experiment: SEC
DR6-Fc fusion = biological target: T1, DR6-Fc fusion (UniProt Q9EPU5 42-349); experiment: BLI
T1 sequence (looked up): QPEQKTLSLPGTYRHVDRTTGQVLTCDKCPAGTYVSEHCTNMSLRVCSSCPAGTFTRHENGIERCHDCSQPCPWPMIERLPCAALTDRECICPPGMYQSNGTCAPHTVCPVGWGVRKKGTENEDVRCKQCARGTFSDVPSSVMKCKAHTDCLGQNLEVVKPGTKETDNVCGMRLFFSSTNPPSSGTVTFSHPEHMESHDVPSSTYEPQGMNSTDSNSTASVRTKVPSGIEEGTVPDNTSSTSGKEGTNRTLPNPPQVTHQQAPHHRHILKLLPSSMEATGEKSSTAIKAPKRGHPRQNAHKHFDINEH

stoichiometry N [1]: 2
Molecule: Full extracellular domain of mouse amyloid precursor protein (from UniProt P12023-2 18-596) (domain or fragment)

Kd (DR6-Fc fusion): 85 nM
B1: AP-APP-E2 (amino acids 287-506), wild type (domain or fragment, UniProt P12023-2 287-506, looked up)
chain: VRVPTTAASTPDAVDKYLETPGDENEHAHFQKAKERLEAKHRERMSQVMREWEEAERQAKNLPKADKKAVIQHFQEKVESLEQEAANERQQLVETHMARVEAMLNDRRRLALENYITALQAVPPRPHHVFNMLKKYVRAEQKDRQHTLKHFEHVRMVDPKKAAQIRSQVMTHLRVIYERMNQSLSLLYNVPAVAEEIQDEVDELLQKEQNYSDDVLANMI
